Experimental data reported in paper PMC5182059.

B1: Ric-8A (1-491) G457A (domain or fragment)
chain: MEPRAVADALETGEEDAVTEALRSFNREHSQSFTFDDAQQEDRKRLAKLLVSVLEQGLSPKHRVTWLQTIRILSRDRSCLDSFASRQSLHALACYADIAISEEPIPQPPDMDVLLESLKCLCNLVLSSPTAQMLAAEARLVVRLAERVGLYRKRSYPHEVQFFDLRLLFLLTALRTDVRQQLFQELHGVRLLTDALELTLGVAPKENPLVILPAQETERAMEILKVLFNITYDSVKREVDEEDAALYRYLGTLLRHCVMADAAGDRTEEFHGHTVNLLGNLPLKCLDVLLALELHEGSLEFMGVNMDVINALLAFLEKRLHQTHRLKECVAPVLSVLTECARMHRPARKFLKAQVLPPLRDVRTRPEVGDLLRNKLVRLMTHLDTDVKRVAAEFLFVLCSESVPRFIKYTGYGNAAGLLAARGLMAGGRPEGQYSEDEDTDTEEYREAKASINPVTARVEEKPPNPMEGMTEEQKEHEAMKLVNMFDKLSR
B2: Ric-8A (1-491) V459A (domain or fragment)
chain: MEPRAVADALETGEEDAVTEALRSFNREHSQSFTFDDAQQEDRKRLAKLLVSVLEQGLSPKHRVTWLQTIRILSRDRSCLDSFASRQSLHALACYADIAISEEPIPQPPDMDVLLESLKCLCNLVLSSPTAQMLAAEARLVVRLAERVGLYRKRSYPHEVQFFDLRLLFLLTALRTDVRQQLFQELHGVRLLTDALELTLGVAPKENPLVILPAQETERAMEILKVLFNITYDSVKREVDEEDAALYRYLGTLLRHCVMADAAGDRTEEFHGHTVNLLGNLPLKCLDVLLALELHEGSLEFMGVNMDVINALLAFLEKRLHQTHRLKECVAPVLSVLTECARMHRPARKFLKAQVLPPLRDVRTRPEVGDLLRNKLVRLMTHLDTDVKRVAAEFLFVLCSESVPRFIKYTGYGNAAGLLAARGLMAGGRPEGQYSEDEDTDTEEYREAKASINPVTGRAEEKPPNPMEGMTEEQKEHEAMKLVNMFDKLSR
B3: Ric-8A (1-491) P464A (domain or fragment)
chain: MEPRAVADALETGEEDAVTEALRSFNREHSQSFTFDDAQQEDRKRLAKLLVSVLEQGLSPKHRVTWLQTIRILSRDRSCLDSFASRQSLHALACYADIAISEEPIPQPPDMDVLLESLKCLCNLVLSSPTAQMLAAEARLVVRLAERVGLYRKRSYPHEVQFFDLRLLFLLTALRTDVRQQLFQELHGVRLLTDALELTLGVAPKENPLVILPAQETERAMEILKVLFNITYDSVKREVDEEDAALYRYLGTLLRHCVMADAAGDRTEEFHGHTVNLLGNLPLKCLDVLLALELHEGSLEFMGVNMDVINALLAFLEKRLHQTHRLKECVAPVLSVLTECARMHRPARKFLKAQVLPPLRDVRTRPEVGDLLRNKLVRLMTHLDTDVKRVAAEFLFVLCSESVPRFIKYTGYGNAAGLLAARGLMAGGRPEGQYSEDEDTDTEEYREAKASINPVTGRVEEKPANPMEGMTEEQKEHEAMKLVNMFDKLSR
B4: Ric-8A (1-491) K462A (domain or fragment)
chain: MEPRAVADALETGEEDAVTEALRSFNREHSQSFTFDDAQQEDRKRLAKLLVSVLEQGLSPKHRVTWLQTIRILSRDRSCLDSFASRQSLHALACYADIAISEEPIPQPPDMDVLLESLKCLCNLVLSSPTAQMLAAEARLVVRLAERVGLYRKRSYPHEVQFFDLRLLFLLTALRTDVRQQLFQELHGVRLLTDALELTLGVAPKENPLVILPAQETERAMEILKVLFNITYDSVKREVDEEDAALYRYLGTLLRHCVMADAAGDRTEEFHGHTVNLLGNLPLKCLDVLLALELHEGSLEFMGVNMDVINALLAFLEKRLHQTHRLKECVAPVLSVLTECARMHRPARKFLKAQVLPPLRDVRTRPEVGDLLRNKLVRLMTHLDTDVKRVAAEFLFVLCSESVPRFIKYTGYGNAAGLLAARGLMAGGRPEGQYSEDEDTDTEEYREAKASINPVTGRVEEAPPNPMEGMTEEQKEHEAMKLVNMFDKLSR
B5: Ric-8A (1-491), rat (Resistance to Inhibitors of Cholinesterase 8A) (domain or fragment)
chain: MEPRAVADALETGEEDAVTEALRSFNREHSQSFTFDDAQQEDRKRLAKLLVSVLEQGLSPKHRVTWLQTIRILSRDRSCLDSFASRQSLHALACYADIAISEEPIPQPPDMDVLLESLKCLCNLVLSSPTAQMLAAEARLVVRLAERVGLYRKRSYPHEVQFFDLRLLFLLTALRTDVRQQLFQELHGVRLLTDALELTLGVAPKENPLVILPAQETERAMEILKVLFNITYDSVKREVDEEDAALYRYLGTLLRHCVMADAAGDRTEEFHGHTVNLLGNLPLKCLDVLLALELHEGSLEFMGVNMDVINALLAFLEKRLHQTHRLKECVAPVLSVLTECARMHRPARKFLKAQVLPPLRDVRTRPEVGDLLRNKLVRLMTHLDTDVKRVAAEFLFVLCSESVPRFIKYTGYGNAAGLLAARGLMAGGRPEGQYSEDEDTDTEEYREAKASINPVTGRVEEKPPNPMEGMTEEQKEHEAMKLVNMFDKLSR
B6: Ric-8A (1-491) E461A (domain or fragment)
chain: MEPRAVADALETGEEDAVTEALRSFNREHSQSFTFDDAQQEDRKRLAKLLVSVLEQGLSPKHRVTWLQTIRILSRDRSCLDSFASRQSLHALACYADIAISEEPIPQPPDMDVLLESLKCLCNLVLSSPTAQMLAAEARLVVRLAERVGLYRKRSYPHEVQFFDLRLLFLLTALRTDVRQQLFQELHGVRLLTDALELTLGVAPKENPLVILPAQETERAMEILKVLFNITYDSVKREVDEEDAALYRYLGTLLRHCVMADAAGDRTEEFHGHTVNLLGNLPLKCLDVLLALELHEGSLEFMGVNMDVINALLAFLEKRLHQTHRLKECVAPVLSVLTECARMHRPARKFLKAQVLPPLRDVRTRPEVGDLLRNKLVRLMTHLDTDVKRVAAEFLFVLCSESVPRFIKYTGYGNAAGLLAARGLMAGGRPEGQYSEDEDTDTEEYREAKASINPVTGRVEAKPPNPMEGMTEEQKEHEAMKLVNMFDKLSR
B7: Ric-8A (1-491) R458A (domain or fragment)
chain: MEPRAVADALETGEEDAVTEALRSFNREHSQSFTFDDAQQEDRKRLAKLLVSVLEQGLSPKHRVTWLQTIRILSRDRSCLDSFASRQSLHALACYADIAISEEPIPQPPDMDVLLESLKCLCNLVLSSPTAQMLAAEARLVVRLAERVGLYRKRSYPHEVQFFDLRLLFLLTALRTDVRQQLFQELHGVRLLTDALELTLGVAPKENPLVILPAQETERAMEILKVLFNITYDSVKREVDEEDAALYRYLGTLLRHCVMADAAGDRTEEFHGHTVNLLGNLPLKCLDVLLALELHEGSLEFMGVNMDVINALLAFLEKRLHQTHRLKECVAPVLSVLTECARMHRPARKFLKAQVLPPLRDVRTRPEVGDLLRNKLVRLMTHLDTDVKRVAAEFLFVLCSESVPRFIKYTGYGNAAGLLAARGLMAGGRPEGQYSEDEDTDTEEYREAKASINPVTGAVEEKPPNPMEGMTEEQKEHEAMKLVNMFDKLSR
B8: Ric-8A (1-491) P463A (domain or fragment)
chain: MEPRAVADALETGEEDAVTEALRSFNREHSQSFTFDDAQQEDRKRLAKLLVSVLEQGLSPKHRVTWLQTIRILSRDRSCLDSFASRQSLHALACYADIAISEEPIPQPPDMDVLLESLKCLCNLVLSSPTAQMLAAEARLVVRLAERVGLYRKRSYPHEVQFFDLRLLFLLTALRTDVRQQLFQELHGVRLLTDALELTLGVAPKENPLVILPAQETERAMEILKVLFNITYDSVKREVDEEDAALYRYLGTLLRHCVMADAAGDRTEEFHGHTVNLLGNLPLKCLDVLLALELHEGSLEFMGVNMDVINALLAFLEKRLHQTHRLKECVAPVLSVLTECARMHRPARKFLKAQVLPPLRDVRTRPEVGDLLRNKLVRLMTHLDTDVKRVAAEFLFVLCSESVPRFIKYTGYGNAAGLLAARGLMAGGRPEGQYSEDEDTDTEEYREAKASINPVTGRVEEKAPNPMEGMTEEQKEHEAMKLVNMFDKLSR
B9: Ric-8A (1-491) N465A (domain or fragment)
chain: MEPRAVADALETGEEDAVTEALRSFNREHSQSFTFDDAQQEDRKRLAKLLVSVLEQGLSPKHRVTWLQTIRILSRDRSCLDSFASRQSLHALACYADIAISEEPIPQPPDMDVLLESLKCLCNLVLSSPTAQMLAAEARLVVRLAERVGLYRKRSYPHEVQFFDLRLLFLLTALRTDVRQQLFQELHGVRLLTDALELTLGVAPKENPLVILPAQETERAMEILKVLFNITYDSVKREVDEEDAALYRYLGTLLRHCVMADAAGDRTEEFHGHTVNLLGNLPLKCLDVLLALELHEGSLEFMGVNMDVINALLAFLEKRLHQTHRLKECVAPVLSVLTECARMHRPARKFLKAQVLPPLRDVRTRPEVGDLLRNKLVRLMTHLDTDVKRVAAEFLFVLCSESVPRFIKYTGYGNAAGLLAARGLMAGGRPEGQYSEDEDTDTEEYREAKASINPVTGRVEEKPPAPMEGMTEEQKEHEAMKLVNMFDKLSR
B10: Ric-8A (1-491) E460A (domain or fragment)
chain: MEPRAVADALETGEEDAVTEALRSFNREHSQSFTFDDAQQEDRKRLAKLLVSVLEQGLSPKHRVTWLQTIRILSRDRSCLDSFASRQSLHALACYADIAISEEPIPQPPDMDVLLESLKCLCNLVLSSPTAQMLAAEARLVVRLAERVGLYRKRSYPHEVQFFDLRLLFLLTALRTDVRQQLFQELHGVRLLTDALELTLGVAPKENPLVILPAQETERAMEILKVLFNITYDSVKREVDEEDAALYRYLGTLLRHCVMADAAGDRTEEFHGHTVNLLGNLPLKCLDVLLALELHEGSLEFMGVNMDVINALLAFLEKRLHQTHRLKECVAPVLSVLTECARMHRPARKFLKAQVLPPLRDVRTRPEVGDLLRNKLVRLMTHLDTDVKRVAAEFLFVLCSESVPRFIKYTGYGNAAGLLAARGLMAGGRPEGQYSEDEDTDTEEYREAKASINPVTGRVAEKPPNPMEGMTEEQKEHEAMKLVNMFDKLSR

The binders below were run against myristoylated Gαi1 harboring a hexahistidine tag in the helical domain (rat) (UniProt P10824).
Sequence of UniProt P10824 (P10824 whole entry, the tested form may be a part): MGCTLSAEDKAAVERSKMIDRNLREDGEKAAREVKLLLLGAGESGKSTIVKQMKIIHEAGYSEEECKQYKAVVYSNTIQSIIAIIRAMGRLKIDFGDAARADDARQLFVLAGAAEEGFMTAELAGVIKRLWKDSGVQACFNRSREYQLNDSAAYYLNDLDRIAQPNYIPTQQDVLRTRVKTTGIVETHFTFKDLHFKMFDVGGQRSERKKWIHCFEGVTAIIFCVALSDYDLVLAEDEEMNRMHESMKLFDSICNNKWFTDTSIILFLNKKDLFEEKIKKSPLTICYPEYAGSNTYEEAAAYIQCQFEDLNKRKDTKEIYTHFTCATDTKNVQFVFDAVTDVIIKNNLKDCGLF
Work on B1 yielded a v1: initial velocity of GDP to GTPγS exchange at Gαi1•GDP (2 μM) on adding GTPγS (10 μM) and Ric-8A (2 μM), tryptophan fluorescence, 25°C of 3.47 µM/min and a v2: initial rate of GTPγS binding to pre-formed Gαi1:Ric-8A (2 μM each, incubated 5 min before 10 μM GTPγS), with release of Ric-8A, tryptophan fluorescence, 25°C of 6.02 µM/min. Binder B2 has a v1: initial velocity of GDP to GTPγS exchange at Gαi1•GDP (2 μM) on adding GTPγS (10 μM) and Ric-8A (2 μM), tryptophan fluorescence, 25°C of 5.65 µM/min and a v2: initial rate of GTPγS binding to pre-formed Gαi1:Ric-8A (2 μM each, incubated 5 min before 10 μM GTPγS), with release of Ric-8A, tryptophan fluorescence, 25°C of 6.85 µM/min. Binder B3 has a v1: initial velocity of GDP to GTPγS exchange at Gαi1•GDP (2 μM) on adding GTPγS (10 μM) and Ric-8A (2 μM), tryptophan fluorescence, 25°C of 2.83 µM/min and a v2: initial rate of GTPγS binding to pre-formed Gαi1:Ric-8A (2 μM each, incubated 5 min before 10 μM GTPγS), with release of Ric-8A, tryptophan fluorescence, 25°C of 4.73 µM/min. B4 showed a v1: initial velocity of GDP to GTPγS exchange at Gαi1•GDP (2 μM) on adding GTPγS (10 μM) and Ric-8A (2 μM), tryptophan fluorescence, 25°C of 4.46 µM/min and a v2: initial rate of GTPγS binding to pre-formed Gαi1:Ric-8A (2 μM each, incubated 5 min before 10 μM GTPγS), with release of Ric-8A, tryptophan fluorescence, 25°C of 5.15 µM/min. B5 gave a v1: initial velocity of GDP to GTPγS exchange at Gαi1•GDP (2 μM) on adding GTPγS (10 μM) and Ric-8A (2 μM), tryptophan fluorescence, 25°C of 3.84 µM/min and a v2: initial rate of GTPγS binding to pre-formed Gαi1:Ric-8A (2 μM each, incubated 5 min before 10 μM GTPγS), with release of Ric-8A, tryptophan fluorescence, 25°C of 4.66 µM/min. B6 was tested, and the v1: initial velocity of GDP to GTPγS exchange at Gαi1•GDP (2 μM) on adding GTPγS (10 μM) and Ric-8A (2 μM), tryptophan fluorescence, 25°C was 7.45 µM/min and the v2: initial rate of GTPγS binding to pre-formed Gαi1:Ric-8A (2 μM each, incubated 5 min before 10 μM GTPγS), with release of Ric-8A, tryptophan fluorescence, 25°C was 5.06 µM/min. Work on B7 yielded a v1: initial velocity of GDP to GTPγS exchange at Gαi1•GDP (2 μM) on adding GTPγS (10 μM) and Ric-8A (2 μM), tryptophan fluorescence, 25°C of 0.63 µM/min and a v2: initial rate of GTPγS binding to pre-formed Gαi1:Ric-8A (2 μM each, incubated 5 min before 10 μM GTPγS), with release of Ric-8A, tryptophan fluorescence, 25°C of 0.37 µM/min. B8 showed a v1: initial velocity of GDP to GTPγS exchange at Gαi1•GDP (2 μM) on adding GTPγS (10 μM) and Ric-8A (2 μM), tryptophan fluorescence, 25°C of 2.9 µM/min and a v2: initial rate of GTPγS binding to pre-formed Gαi1:Ric-8A (2 μM each, incubated 5 min before 10 μM GTPγS), with release of Ric-8A, tryptophan fluorescence, 25°C of 4.78 µM/min. With B9 the v1: initial velocity of GDP to GTPγS exchange at Gαi1•GDP (2 μM) on adding GTPγS (10 μM) and Ric-8A (2 μM), tryptophan fluorescence, 25°C was 2.25 µM/min and the v2: initial rate of GTPγS binding to pre-formed Gαi1:Ric-8A (2 μM each, incubated 5 min before 10 μM GTPγS), with release of Ric-8A, tryptophan fluorescence, 25°C was 4.56 µM/min. For B10, the v1: initial velocity of GDP to GTPγS exchange at Gαi1•GDP (2 μM) on adding GTPγS (10 μM) and Ric-8A (2 μM), tryptophan fluorescence, 25°C was 6.54 µM/min and the v2: initial rate of GTPγS binding to pre-formed Gαi1:Ric-8A (2 μM each, incubated 5 min before 10 μM GTPγS), with release of Ric-8A, tryptophan fluorescence, 25°C was 5.36 µM/min.
